These results are taken from patent publication US20070098681A1.

Test [1] has as its target DR5-IgG (human). The experiment in a line: method not stated; against zinc-bound Apo-2L.
Test [2] addresses DR5-IgG (human). The test can be described thus: phage bound and eluted from DR5-IgG coated well against blank well; phage grown at 37 C.

Values joined by “and” are separate entries in the source; they are usually repeats but may differ in a detail not shown here. Identical values can stand only once.

Take “Apo-2L after removal of the bound metal by dialysis against chelating agents (ligand)”: the fold decrease in DR5 affinity in test [1] worked out at 7 fold. For “wild-type Apo2L/TRAIL (residues 96-281) displayed on M13 phage (ligand)”, the Enrichment (ratio (DR5-IgG well / blank well)) in test [2] is 1.5 and 3.3.
